# Source: the DeepSol protein solubility set
# Assay: soluble on expression in E. coli; label from the status in PepcDB or PDB records
row,Sequence,soluble on expression in E. coli
1,MSLYTFKELKRATKQDTVSLPKLKVALLGDTATQLLATAIKGEGILRNYNIELWEAEYNQVERQIMDPTSDYYQFEPDYTIIFHSTHKLLEKHSLVNSDLQNKLADDRLDFVRLLCEQGIGRVIYYNYPEIEDTIWGSYATKVQSSFTYQLTKLNYELMNISQAYPNFFICNLAGISAKYGRNFMFDSSVYVNTEIILSLDALPIISSRTIDIIAAIQGKFKKCLILDLDNTIWGGVVGDDGWENIQVGHGLGIGKAFTEFQEWVKKLKNRGIIIAVCSKNNEGKAKEPFERNPEMVLKLDDIAVFVANWENKADNIRTIQRTLNIGFDSMVFLDDNPFERNMVREHVPGVTVPELPEDPGDYLEYLYTLNLFETASFSEDDKDRTKQYQIEAKRVSLQQSFTNEAEFLKSLDMVSEVKGFDKFNTPRVAQLSQRSNQFNLRTVRYTEAEIAAIESDLHYATFSFTLADRFGDNGLICVIILEKQDTETLFINTWFMSCRVLKRGMENFTLNTLVDYARSNGFKRFIGEYLPSAKNQMVEEHYPHLGFSKMEGGDNAARYVLDVETYEEKECYITKKEGHHHHHH,soluble
2,MVLLLIVNKYWKVNDMKNEIQKNMDKYNPWHEDDFESYEDIARDVSLTTDKTFIEHYLLEVYSEENGHFDQENVHAMIEEIKNAI,not soluble
3,MSLISIVVLYYSRHGSTQALARQIARGVESVEGCQALLRTVAELDGTASNSDPYLSLDELKQCDGLALGSPVWFGNMAAPLKHFWDQTTPLWLSGALIDKPACVFTSSSTLHGGQETTQQSMMLPLLHHGMLILGIPYSEPALHTTQSGGTPYEGHHHHHH,not soluble
4,MKLAVITDSSVYLPQDFVQREDLFILDIDITIDGKTYIEGKNLSLDEFYTKMAASKELPKTSQPNLAELDDLLTNLEEEAYTHVIGLFLSGGISGFHQNIQYLIAEHDKLEIAFPDTKITSSPMGLMVMEALKWGREEIAFEQILVNLQVMIDKTNAFIMVDDLNHLVKGGRLSNGSALLGNLLSIKPILYFTNGRIEVFEKVRTEKKAIKRLISIIDEVTADGSYMVYIIHANARGKAEDLQKRLVDHGYTKNLAIVPFNGVIATHLGEGAIALGAIPII,not soluble
5,TQEDVVVTLSHQGYVKYQPLSEYEAQRRGGKGKSAARIKEEDFIDRLLVANTHDHILCFSSRGRVYSMKVYQLPEATRGARGRPIVNLLPLEQDERITAILPVTEFEEGVKVFMATANGTVKKTVLTEFNRLRTAGKVAIKLVDGDELIGVDLTSGEDEVMLFSAEGKVVRFKESSVRAMGCNTTGVRGIRLGEGDKVVSLIVPRGDGAILTATQNGYGKRTAVAEYPTKSRATKGVISIKVTERNGLVVGAVQVDDCDQIMMITDAGTLVRTRVSEISIVGRNTQGVILIRTAEDENVVGLQRVAE,soluble
6,MKYQKLENQEANWKWIYLIRKHREGENITRYEERSLQEAKAQELLESQNYPEKIEEWIKNHLSPALPIKLDQAIRARRKRFFNGEKQHTKKKSIDLEYAVWLRLSKYSRKMKMTLSETITYMIDERESKAQFENQMAAMKTSLKNLLK,not soluble
7,MSFFHASQRDALNQSLAEVQGQINVSFQFFPPRTSEMEQTLWNSIDRLSSLKPKFVSVTYGANSGERDRTHSIIKGIKDRTGLEAAPHLTCIDATPDELRTIARDYWNNGIRHIVALRGDLPPGSGKPEMYASDLVTLLKEVADFDISVAAYPEVHPEAKSAQADLLNLKRKVDAGANRAITQFFFDVESYLRFRDRCVSAGIDVEIIPGILPVSNFKQAKKFADMTNVRIPAWMAQMFDGLDDDAETRKLVGANIAMDMVKILSREGVKDFHFYTLNRAEMSYAICHTLGVRPGLLEHHHHHH,soluble
8,MINKLDNLNEEVANQIFTVFQNSYKIEAQLIGTLNFPPLLRSAKDIENSKTLFYGFSENECLAAVIEIVLENKQLDINSLTVDPNYFRKGIANKLITYILDKFYFSEAIVETAVVNTPAINLYKKHGFVEFKRWIPSHGIEKLAMSVKATL,not soluble
9,MEAKLQVGVLGFGTVGSGVIHILEEHQEKISQVTGYHISVKKVLVRDLEKNRRYETKGFELTTNPSDVLDDPEIAVVVEVMGSITTAREYILQALKAGKHVVTANKDLIALHGDELVAVAQANNCDLFYEASVAGGIPILRTIVNSLAADKIQKVMGIVNGTTNFMLTKMTTEKKSYEEVLAEAQALGFAESDPTNDVDGIDAARKMVIMTRLAFGMNVNLDNVETSGIRGISPEDIEVAYQLGYKIKLVGTAEETNGTVNVNVGPVLLPKAHPLAGVNYENNAVFVTGAAVGETMFYGPGAGELPTATSVVSDLITVAKNSRLGTNGNAFNSYKHETKHTPKEQVFSKYYLRLTMDDKTGTFLKLTQIFAEAGVGFDKILQQPYDDFTATVVIVTHSTSQAQLEQAITRVKNEPEMQMLAKYSVVEG,soluble
10,MGSDKIHHHHHHMSLPETPTIRIGMAMWSHPGWKTVFPGLDAEARLTAYSRVFGTVEGNTSFYALPSAQQVSIWQRATPEDFRFTFKLPRRITHELSLRNCREEVLQFFRLFEPLMAKTGVWKIQLPARFGPESLSVLTQFLSLLPEGIGLGVEVRHRAFFAKGEAEKDFNRLLMDKGINRIIMDTRPVFALPAINEAITDAHQKKPRVPVHPLATGAHPVVRFIAQPHTPAAWGPGGKPADLGCADNLAFFAPWLGKLAGWLAEGRSPYLFIHTPDNSDAPLLASELAKQVAAHLQALHPGLPIPSVMLDSAESDGGQIGLGLQ,not soluble
11,MSLTTYEMARILEQLDESPEKVMYGKLLNELGNQSSERIRSAAKQVPLTVLRDLVYQFQQVIESRKGEQVETMAKELAKQGISAEELLNYLQKR,not soluble
12,MKGERLDKVLARLGLGSRKEVARLVRQGKVRVLGQVVKDPGFRVPEGAALEVEGRPLEVRRHLHVLLHKPPGFVTSRTEGPSVYALLQGFPTRDLSPVGRLDKDAEGLLLFTTDGLLLHRLTHPRHKVAKRYLVHLERPVGPKDQEAFREGILLDGKKTLPAELTPLEDPTWAEVVLKEGRFHQIKRMFRARGNRVLRLKRLALGPLELGDLPPGKARPLTEAEEKALYAAVGLGGEDPEDEV,soluble
13,MSATINDLASFNKFFTENQHRFIRFAWTYTRDEVVAEDIVMESLMAYWENRDHMTPEINPAAYVLTVVKNKCLNYLRHLQLVNDVSDRVASHSEWELSNRIATLDACEPNALFASEVQDIIDRVISRLSATTARIFLLSRYDNKSHKEIAEIMGMTVKGVEFHISKATKELRVALKDYLVLFPFLCDFLSRN,not soluble
14,PLGSDGLPLDPRDWTRADVWKWLINMAVSEGLEVTAELPQKFPMNGKALCLMSLDMYLCRVPVGGKMLYRDFRVRLARAMSR,soluble
15,MSLKTVEEQAKNIYQLLEMVYGTSPWTLEQVLIDIRRDQTDYFLLYDHDKLLGFLAIQDLAGEVEMTQIAILPSHQELGLASQLMTHLDSIESDIFLEVRESNHRAQGLYQKFGFKFIGKRPDYYRNPIETALLMKREGKHDREGHHHHHH,soluble
16,MGSDKIHHHHHHMLTMIQQYHIKHLNFHKGKSLRSIAEETGHDFRTVKKYAEQTDFNEIRKPKRGRPSKLDPVKPIIDAWLKEDLNRPVKQRHTARRIYDRLCDEHQDIFNACERTVRTYVSARKKELYGEEEGYLPLEHPAGEAQVDFGEIVMIEQGQKVKGYELILSLPYSNAGYPQIFRGQNQECLLTGLKDIF,not soluble
17,MGSDKIHHHHHHMPNHDALAGGKVHLRRGVDLQVSHSPGVYPPLVFIHGGTGNRFNFRMQYEFAQAQGWEVLAYDLGGNGQSSRYSRYSIGRHCRDLARLLVRFGVESPVLCCHSYGVPIGLEFVQHHPVSAIIAIAGGTHDLAPWWEIPLMKFMAGGGRYLLHLPGVQKINKLLSTSYSHSVMERFFVENPPPTDFDAYKGLEIFWDYNFFIRHPLPKNLHIPALVITADKDPTFTANMGDELANHFDDGTHLHFAKGGHLVMAESAELVNEAIANWLIQKLTIN,not soluble
18,MWCLPLSSGNDAHMTTHIQRSALLPYPAGFLYDLVNDVARYPEFLPWCSSATVLDASESQMRASLEIAKGGLSQKFMTRNTLVPGESIVMDLVEGPFEQFHGVWTFKPLGEKACKISLDLSFDYAGTIVRATLGPLFNQAANTLVDAFCQRAKELHGLEHHHHHH,not soluble
19,MNVLALDTSQRIRIGLRKGEDLFEISYTGEKKHAEILPVVVKKLLDELDLKVKDLDVVGVGIGPGGLTGLRVGIATVVGLVSPYDIPVAPLNSFEMTAKSCPADGVVLVARRARKGYHYCAVYLKDKGLNPLKEPSVVSDEELEEITKEFSPKIVLKDDLLISPAVLVEESERLFREKKTIHYYEIEPLYLQKSIAELNWEKKKRG,not soluble
20,MGSDKIHHHHHHMRFGYFDDVNREYVITTPQTPYPWINYLGTEDFFSIISHMAGGYCFYKDARLRRITRFRYNNVPTDAGGRYFYIREENGDFWTPTWMPVRKDLSFFEARHGLGYTKITGERNGLRATITYFVPRHFTGEVHYLVLENKAEKPRKIKLFSFIEFCLWNALDDMTNFQRNYSTGEVEIEGSVIYHKTEYRERRNHYAFYSVNQPIDGFDTDRESFIGLYSGFEAPQAVVEGKPRNSVASGWAPIASHYLEIELAPSEKKELIFILGYVENPEEEKWEKPGVINKKRAKEMIEKFKTGEDVEHALKELREYWDDLLGRIQVETHDEKLNRMVNIWNQYQCMVTFNISRSASYFESGISRGIGFRDSNQDILGFVHMIPEKARQRILDLASIQFEDGSTYHQFQPLTKKGNNEIGGGFNDDPLWLILSTSAYIKETGDWSILGEEVPFDNDPNKKASLFEHLKRSFYFTVNNLGPHGLPLIGRADWNDCLNLNCFSKNPDESFQTTVNALDGRVAESVFIAGLFVLAGKEFVEICKRRGLEEEAREAEKHVNKMIETTLKYGWDGEWFLRAYDAFGRKVGSKECEEGKIFIEPQGMCVMAGIGVDNGYAEKALDSVKKYLDTPYGLVLQQPAYSRYYIELGEISSYPPGYKENAGIFCHNNPWVAIAETVIGRGDRAFEIYRKITPAYLEDISEIHRTEPYVYAQMVAGKDAPRHGEAKNSWLTGTAAWSFVAITQHILGIRPTYDSLVVDPCIPKEWEGFRITRKFRGSIYDITVKNPSHVSKGVKEIIVDGKKIEGQVLPVFEDGKVHRVEVVMG,not soluble
21,MGSSHHHHHHSSGLVPRGSHMSLKHFLNTQDWSRAELDALLTQAALFKRNKLGSELKGKSIALVFFNPSMRTRTSFELGAFQLGGHAVVLQPGKDAWPIEFNLGTVMDGDTVEHIAEVARVLGRYVDLIGVRAFPKFVDWSKDREDQVLKSFAKYSPVPVINMETITHPCQELAHALALQEHFGTPDLRGKKYVLTWTYHPKPLNTAVANSALTIATRMGMDVTLLCPTPDYILDERYMDWAAQNVAESGGSLQVSHDIDSAYAGADVVYAKSWGALPFFGNWEPEKPIRDQYQHFIVDERKMALTNNGVFSHCLPLRRNVKATDAVMDSPNCIAIDEAENRLHVQKAIMAALVGQSRP,soluble
22,MVRRRTASPSPSAPVRSAPRPAAQSSFAAPPPRPAAAAPAYHPPAAPTPMGAPMGAPSQGPGLMKQMAATAGGVAIGSAVGHAVGGMFTGGGSSHAEQAPAAAAAPAGAPQASGYSQPCEFEWRQFVDCAQNQSDVSLCNGFNDIFKQCKARYA,not soluble
23,MTQRLHRDRHDRGVRGPLFSSALPRYCSRRQRFDATVLEAYAPLQQRYAAQLTHLDIAVDTVPRMRLGFDPALVPDEVVADGPVPLGRVIPAGVDSSGHPTRARLVLFRMAIEQRVVSAQERRELVTTVLTALVANYLNISPTDIDPNFQW,not soluble
24,MMKPVLHFSKLYEVKKLLRKSRLYTVCEESRCPNISECFGNKTATFMILGNRCTRRCAFCNVEKGFPKGVDPEEPYRLLEAVKTLGLKYVVITSVTRDDLPDGGASHFAKCIRVLKENIEDIKVEVLIPDFRGNKKALEVVLKEKPVVLNHNVETVPRLYPSVRIGANYKRSLNILKWSKEIDKSVYTKSALILGFGERKEEVIKVMEDLRSVDCDFLVLGQYYQPSLKHHPVVKYYSEEEFKEFEEIGYEMGFKFVVSKPNARSSYKAFESLLSTLEHHHHHH,not soluble
